Results reported in publication PMC8038987, “An unusual thioredoxin system in the facultative parasite Acanthamoeba castellanii” (Cellular and Molecular Life Sciences: CMLS, 2021).

Legend:
Assay type in all cases: biochemical, Acanthamoeba castellanii
[1] = substrate: NC(=O)C1=CN([C@@H]2O[C@H](COP(=O)(O)OP(=O)(O)OC[C@H]3O[C@@H](n4cnc5c(N)ncnc54)[C@H](OP(=O)(O)O)[C@@H]3O)[C@@H](O)[C@H]2O)C=CC1; experiment: Trx-1-dependent DTNB reduction, A412; conditions: 10 µg/ml Trx-1, 1 mM DTNB, 1 µg/ml (31 nM) TrxR-S, 100 mM potassium phosphate pH 6.8, 21-23 °C
Description: Trx-1-dependent DTNB reduction, A412 on Ac TrxR-S

[2] = substrate: NC(=O)C1=CN([C@@H]2O[C@H](COP(=O)(O)OP(=O)(O)OC[C@H]3O[C@@H](n4cnc5c(N)ncnc54)[C@H](OP(=O)(O)O)[C@@H]3O)[C@@H](O)[C@H]2O)C=CC1; experiment: GSH-dependent DTNB reduction, A412; conditions: 1 mM GSSG, 11 nM GR, 100 mM Tris pH 7.5
Description: GSH-dependent DTNB reduction, A412 on Ac GR

[3] = substrate: C[S+]([O-])CCC(N)C(=O)O; experiment: coupled NADPH oxidation via TrxR-S and Trx-1, A340; conditions: 610 nM MsrA, 1.9 µM Trx-1, Ac TrxR-S, 0.2 mM NADPH
Description: coupled NADPH oxidation via TrxR-S and Trx-1, A340 on MsrA

B1: Ac TrxR-S (Acanthamoeba castellanii str. Neff) (protein)
chain: MESKVHRMVIVGSGPAGHTAAIYAARANLEPVMYEGWMAGGVASGGQLTTTTDVENFPGFPEGVGGIDLTDNMRKQSERFGTVIIPKTITKADLSSRPFKLWVEGEEEGEPAAQAHSLIIATGATARRLAVPGEETFWQKGVSACAVCDGALPLFRNKPLAVVGGGDSACEEASWLSKFGSKVYLIHRRDELRASKIMAQRVLSNPKIEMVWNSAVEEIYGEKLVTGLKIKNVSTGDITDLPVSGLFWAIGHVPNTQFLNGQVETDAEGYIKTTPGSTVTSVEGVFAAGDVQDKRYRQAITAAGTGCMAALDAEHWLSAHL
notes: full-length from cDNA, 321 aa, C-terminal 6xHis, pET-17b, E. coli BL21-AI, Ni-NTA
Km [1]: 4 µM | Vmax [1]: 2.96 µmol/min/mg | kcat [1]: 1.7 s⁻¹

B2: Ac GR (Acanthamoeba castellanii str. Neff) (protein)
chain: MESAKSTYDFDLFVLGAGSGGVRASRISAKAGARVAIAEESRVGGTCVIRGCIPKKLLVYASHFSGDFEDSRNFGWSVDVKGFDWKKLIDNKDKEIDRLNGIYKNLLAGSGVKLIEGRATLVDAHTVKVGDATYTAENILVAVGSWPWVPTIPGIEHAITSNEALELQELPKHAIIVGAGYIACEFATIFSGCGAKVTQIFRKPYVLTGFDNDVQLAVMDEGKKQGINFMPSTQVTAIEKTDAGYVCQLDNGQTVTGDVVMYATGRVPNSANLGLENAGVKIDQQGAIVVDEWSRTSVPSIYAVGDITNRINLTPVALAEGHALADTLYNNLPRTADHTNVPSAVFTSPPVSCVGYTETQARQVYGEIDVYVSKFTPLRHTLSKRDEKTFMKLIVDRKTDRVVGAHMVGADAPEIIQGVAIAVKCGATKKQFDSTVGLHPSAAEEFVTMRTKRE
notes: full-length from cDNA, 454 aa, C-terminal 6xHis, expressed in Giardia lamblia WB C6, Ni-NTA; eluate also contained G. lamblia proteins
Km [2]: 9 µM

B3: MsrA (Acanthamoeba castellanii str. Neff) (protein)
chain: MTETATFGAGCFWGVEKFFRKEFGSALASTEVGYAGGDKSSPTYRQVCDGDTGHAEVVKLEFKKDAVDYASLVEFFFRIHDASTVDRQGNDVGTQYRSVIFYHTPEQKKVAEEVKDKVQKEHYPRTPIVTQIVPVGQYWSAEDYHQLYLEKNPSGYCNHRLRW
notes: full-length from cDNA, 163 aa, C-terminal 6xHis, pET-17b, E. coli BL21-AI, Ni-NTA
Km [3]: 2590 µM | Vmax [3]: 500 nmol/min/mg | kcat [3]: 0.155 s⁻¹ | kcat/Km [3]: 59 M⁻¹ s⁻¹
